Assay type in all cases: cell-based
Series [1] has as its system endogenous genome targets (ACTB, HSP90AA1). As to the kind of experiment: Arrayed SSAP library screening, mKate knock-in assay (editing efficiency). The following applies: average of HSP90 and ACTB, 3 days after transfection; for Editing Efficiency (Normalized, Average, two targets): fold over negative control (Flag_HA); for Editing Efficiency (Absolute, Average, two targets): percent of mKate knock-in. Summed up: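 Mammalian cells in duplicate were transfected with SSAP-encoding plasmids, with about 50% transfection efficiency. mKate knock-in positive cells and viability, by flow-cytometric live counts, were quantified three days later. RecT SSAP served as positive control and Flag-HA plasmid as negative control.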

In series [2] the test system is mammalian cells. As to the kind of experiment: Arrayed SSAP library screening, cell viability by live cell counts via flow cytometry. Summed up:
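Each SSAP plasmid transfected in duplicate (~50% efficiency), with RecT SSAP as positive and Flag-HA as negative control. After three days, mKate-positive cells and viability by flow-cytometric live cell counts were quantified to gauge SSAP fitness effects.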
A general note: Flow cytometry measures light scatter and fluorescence of single cells or particles in a stream.

The test system of series [3] is gene editing with Cas9. As to the kind of experiment: Screen of 322 new SSAP proteins, gene editing activity with Cas9 (Table 5). Set-up: Cas9 with SSAP activity: scale not given here. The method in brief: (§1)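 First, 322 new single-strand annealing proteins are identified from sequences. Next they are synthesized. Finally each is assayed for editing in combination with Cas9 and, separately, dCas9.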

Series [4] relates to gene editing with dCas9. As to the kind of experiment: Screen of 322 new SSAP proteins, gene editing activity with dCas9 (Table 5). Details: dCas9 with SSAP activity: scale not given here. Summed up:
as §1

Series [5] relates to gene editing with Cas9 and dCas9. As to the kind of experiment: Screen of 322 new SSAP proteins, activity across all experiments (Cas9 and dCas9, Table 5). Details: scale not given here. Summed up: as §1

Results on nine molecules are retold here after patent publication US20250034594A1, “RNA-GUIDED GENOME RECOMBINEERING AT KILOBASE SCALE” (THE BOARD OF TRUSTEES OF THE LELAND STANFORD JUNIOR …, priority 2021, published 2025).

B1: SSAP_221: SEQ ID NO: 390; Streptomyces sp. 351MFTsu5.1 (protein, listed as Streptomyces sp.)
chain: SQISNAIEKRDQGPGAVIEQYKQELALVAASHVKVDTFARLAVGALRQNPKLAAAAQSNPGSLMSALMTAARLGLEPGTEQFYLRPIKRKGVAEVQGIVGYQGIVELIYNAGAASSVVVEVVRANDQFNYVPGLHERPVHNVDWFGDRGDLVGVYAYAVMAGGATSKVVVLSRTHINRAKAKSDGADSDYSPWRTDEEAMWLKTAARRLGKWVPTSAERLTMPAERTDTVLPVGSAAPALDAADPDEDEGPVDGELEPAGGWPETAQPPQ
For the molecule B1, in series [1], the “Editing Efficiency (Normalized, Average, two targets)” value worked out at 4.587 and the “Editing Efficiency (Absolute, Average, two targets)” value is given as 11.35. Besides, the “Cell Viability (Average, two targets)” value in series [2] turned out to be 0.9772. For the same molecule, in series [3], the “Cas9 with SSAP activity” value was −4.494 and the “Cas9 with SSAP activity (normalized)” value is −0.728. For the same molecule, the “dCas9 with SSAP activity” value in series [4] is −8.056. Besides, in series [5], the “Activity across all experiments” value was −6.275.

B2: SSAP_4: SEQ ID NO: 166 (protein)
chain: MSTALATLAGKLAERVGMDSVDPQELITTLRQTAFKGDASDAQFIALLIVANQYGLNPWTKEIYAFPDKQNGIVPVVGVDGWSRIINENQQFDGMDFEQDNESCTCRIYRKDRNHPICVTEWMDECRREPFKTREGREITGPWQSHPKRMLRHKAMIQCARLAFGFAGIYDKDEAERIVENTAYTAERQPERDITPVNDETMQEINTLLIALDKTWDDDLLPLCSQIFRRDIRASSELTQAEAVKALGFLKQKAAEQKVAA
modifications: Lambda
B2: in series [1], the “Editing Efficiency (Normalized, Average, two targets)” value is recorded as 5.57 and the “Editing Efficiency (Absolute, Average, two targets)” value was determined as 13.8. Moreover, the “Cell Viability (Average, two targets)” value in series [2] turned out to be 1.192. Further, in series [3], the “Cas9 with SSAP activity” value is listed as −2.882 and the “Cas9 with SSAP activity (normalized)” value was −0.474. In addition, in series [4], the “dCas9 with SSAP activity” value is reported as −6.997 and the “dCas9 with SSAP activity (normalized)” value was −1.447. In series [5], the “Activity across all experiments” value is given as −4.940.

B3: SSAP_194: SEQ ID NO: 363; Streptomyces sp. CS014 (protein, listed as Streptomyces sp.)
chain: TENTVTAAVAVRDTGPAAQIEAYRDEYAALVPSHINADQWVRLAVGAIRGNEDLTNAARTDIGVFLRELKTAARLGLEPGTEQFYLTPRKSKAHRGQKIIKGIVGYQGIIELIYRAGAVSSVIVESVRANDTFRYVIGRDERPVHEIDWFGGDRGDLVGVYAYATMKDGATSKVVVLNHAQVMQIRAKSDSKHSEYSPWNTNPESMWLKSAVRQLMKWVPTSAEYMREQLRAQAEVAAEQPPAADLPPMPSVELNDEDEAVDAELVDEEA
For B3, in series [1], the “Editing Efficiency (Normalized, Average, two targets)” value worked out at 4.924 and the “Editing Efficiency (Absolute, Average, two targets)” value is listed as 12.175. Further, in series [2], the “Cell Viability (Average, two targets)” value is recorded as 1.139. For the same molecule, in series [3], the “Cas9 with SSAP activity” value came out at 2.727 and the “Cas9 with SSAP activity (normalized)” value was 3.516. The “dCas9 with SSAP activity” value in series [4] was −8.790. Moreover, in series [5], the “Activity across all experiments” value is on record as −3.031.

B4: SSAP_262: SEQ ID NO: 431; YqaK Schleiferilactobacillus shenzhenensis LY-73 (protein, listed as Schleiferilactobacillus shenzhenensis)
chain: SAVSESKDLQHVDQLSVLNSAMTAASLNLPINQNLGFFYLVPYKGIAQAQMGYKGYIQLAQRSGQYQRLNAIPVYADEFGSWNPLTEELDYTPHFEDRKASDKPVGYVGFFKLANGFEKTVYWSRKQIEAHRDRFSKSSKSSASPWNTDFDAMALKTVLRNLITKWGPMTTDIQRANDADEGDYKNDLSTDTSEPKDVTPGASLEQFLGETDQQQKPATKPAPKKKAEEAKPNDLKPDVTHDPNEHTEQTSLSDDDLPFD
Consider B4, for which, in series [1], the “Editing Efficiency (Normalized, Average, two targets)” value worked out at 3.676 and the “Editing Efficiency (Absolute, Average, two targets)” value was determined as 9.1025. Further, in series [2], the “Cell Viability (Average, two targets)” value is on record as 1.122. Besides, in series [3], the “Cas9 with SSAP activity” value is listed as −2.947 and the “Cas9 with SSAP activity (normalized)” value was −0.511. Moreover, in series [4], the “dCas9 with SSAP activity” value is reported as −6.590 and the “dCas9 with SSAP activity (normalized)” value is recorded as −1.417. Also, in series [5], the “Activity across all experiments” value was −4.769.

B5: SSAP_305: SEQ ID NO: 474 in b312 (Table 9 prints 424); Clostridium akagii (protein, listed as Clostridium akagii)
chain: ATSESLKNQLVNKETRPPKDPFKALVYSAGIKKRFEDMLDKQANGFITSLLNLKQDKLKSCDDFTVLGSALKAAALKLPIDPNLGFAWIIPFKNHGKLEAQFQIGYKGFIQMAQRSGQYKKLNVTEIYEGQLKSFNPLTEEIVLDLDNIKSDLRKINKRYLIVMRMNLLALHLRKISKG
For B5, in series [1], the “Editing Efficiency (Normalized, Average, two targets)” value is on record as 4.612 and the “Editing Efficiency (Absolute, Average, two targets)” value is given as 11.425. In addition, the “Cell Viability (Average, two targets)” value in series [2] was found to be 0.5578. For the same molecule, in series [3], the “Cas9 with SSAP activity” value was 0.745 and the “Cas9 with SSAP activity (normalized)” value was 0.408. Further, in series [4], the “dCas9 with SSAP activity” value is on record as −6.032 and the “dCas9 with SSAP activity (normalized)” value is on record as −1.721. Besides, the “Activity across all experiments” value in series [5] is reported as −2.644.

B6: SSAP_36: SEQ ID NO: 205 (protein)
chain: SSIAAAAESAEVTPASIINKYRDDIATVLPPKLRERIDRWIRLAIGAVNSNPELISRVRADQGASMMQALMKCAALGHEPGSGLFHLVPKGSRIEGWEDYKGILQRIDRSGVYARTVIGVVYANDEYSYDQNVDERPRHVRATGDRGEPISSYAYAVYPSGAITTVAEATPEQIASSKSKARGADNAASPWRAPGAPMHRKVAVRLLEKHVATSAEDRREPISRSAANDVVIDATADYYQEP
On to B6, for which, in series [1], the “Editing Efficiency (Normalized, Average, two targets)” value turned out to be 6.383 and the “Editing Efficiency (Absolute, Average, two targets)” value is recorded as 15.8. The “Cell Viability (Average, two targets)” value in series [2] is recorded as 0.9418. Besides, in series [3], the “Cas9 with SSAP activity” value is listed as −4.118 and the “Cas9 with SSAP activity (normalized)” value is given as −0.619. In series [4], the “dCas9 with SSAP activity” value is −8.909 and the “dCas9 with SSAP activity (normalized)” value is recorded as −1.787. Also, the “Activity across all experiments” value in series [5] is on record as −6.514.

B7: SSAP_158: SEQ ID NO: 327; Nakamurella lactea (protein)
chain: ASNLAARAAEQVEQQTAPNRPPTIKEQIGRMESQFALAMPRGSEAAQLVRDAITAINTNPQLAECTPASVLGALMTCAQLGLRPGVLGHAWVLPFRSKGVMQAQLVIGYQGLVELAHRTGQVASLIAREVHERDHFDVDYGLADSLIHKPLLNGDRGPVTGYYAIVKFKGGGHSFIYASKADVEAHRDKFSKMKSFGPWVDNFDSMALKTVVRMLAKWMPKSTEFANAISADEGVRVDYSPTADVAQATEYVQPQLEEAPVEGVVVSEGGES
modifications: Nakamurella lacteal
notes: Nakamurella lactea
Turning to B7, in series [1], the “Editing Efficiency (Normalized, Average, two targets)” value stood at 5.44 and the “Editing Efficiency (Absolute, Average, two targets)” value came to 13.45. In addition, the “Cell Viability (Average, two targets)” value in series [2] is given as 0.9945. Also, in series [3], the “Cas9 with SSAP activity” value is −1.229 and the “Cas9 with SSAP activity (normalized)” value is recorded as −0.520. Moreover, in series [4], the “dCas9 with SSAP activity” value was −6.910 and the “dCas9 with SSAP activity (normalized)” value was −1.386. In addition, the “Activity across all experiments” value in series [5] is reported as −4.070.

B8: SSAP_12: SEQ ID NO: 181 (protein)
chain: STALATLAGKLAERVGMDSVDPQELITTLRQTAFKGDASDAQFIALLIVANQYGLNPWTKEIYAFPDKQNGIVPVVGVDGWSRIINENQQFDGMDFEQDNESCTCRIYRKDRNHPICVTEWMDECRREPFKTREGREITGPWQSHPKRMLRHKAMIQCARLAFGFAGIYDKDEAERIVENTAYTAERQPERDITPVNDETMQEINTLLIALDKTWDDDLLPLCSQIFRRDIRASSELTQAEAVKALGFLKQKASEQKVAA
Regarding B8, in series [1], the “Editing Efficiency (Normalized, Average, two targets)” value is 4.263 and the “Editing Efficiency (Absolute, Average, two targets)” value is 10.5525. Further, the “Cell Viability (Average, two targets)” value in series [2] is reported as 1.291. In series [3], the “Cas9 with SSAP activity” value is listed as −7.814 and the “Cas9 with SSAP activity (normalized)” value is recorded as −1.324. In series [4], the “dCas9 with SSAP activity” value is recorded as −7.567 and the “dCas9 with SSAP activity (normalized)” value is −1.196. In series [5], the “Activity across all experiments” value is −7.690.

B9: SSAP_197: SEQ ID NO: 366; Arsenophonus sp. ENCA (protein, listed as Arsenophonus sp.)
chain: NTELETMNNVYDNLQSVIMQQGIAALLPAQVTPEQFTRTAATALIENVDLQNADKQSLVLALTRCAKDGLMPDGREAALVVRSTKVNKQFVKKAVYMPMVDGVIKRARQSGQVANIIAKVVYSQDEFEYVIDENGEHLTHRPAFVDGDDIVKVYAFAKLNSGELVVEVMSRAGVEKIRDTVQSAKYDSSPWVKWFDRMALKTVIHRLARRLPCASELFSLFEVYEDANSTEKTLRMAPASFKRLSIN
As to B9, in series [1], the “Editing Efficiency (Normalized, Average, two targets)” value turned out to be 5.661 and the “Editing Efficiency (Absolute, Average, two targets)” value is on record as 14.025. For the same molecule, the “Cell Viability (Average, two targets)” value in series [2] is listed as 1.021. Besides, in series [3], the “Cas9 with SSAP activity” value is reported as −2.785 and the “Cas9 with SSAP activity (normalized)” value is −1.134. Further, in series [4], the “dCas9 with SSAP activity” value is −6.622 and the “dCas9 with SSAP activity (normalized)” value was −1.370. The “Activity across all experiments” value in series [5] is on record as −4.703.
